The values that follow come from patent publication US20180282403A1, “AGENTS FOR REDUCING THE ACTIVITY OF GDF15” (GENAGON THERAPEUTICS AB, priority 2015, published 2018).

What all share (format): cell-based
Test [1] relates to QRFPR. The experiment in a line: In situ PLA detection of QRFPR at the cell surface in U2OS osteosarcoma cells. The following applies: U2OS cells, GDF15 alone; FIG. 9E. The text has this:
A-D) In situ PLA detection of the Rab11-QRFPR complex following exposure of MCF7 cells to GDF15. A) +Ctrl peptide. B) +QRFPR extracellular N-terminal peptide. C-D) +QRFPR extracellular loop3 (domain 4) peptide. The level of the Rab11-QRFPR complex is reduced by the peptide from extracellular loop3 of QRFPR. E) in situ PLA detection of QRFPR in U2OS osteosarcoma cells.
We choose to use this assay as a way to investigate if the activity of GDF15 could be inhibited by various agents. […] GDF15-induced formation of RAB11/QRFPR endosomes is inhibited by QRFPR peptides (FIG. 9A-D). Equal amounts of a mastermix of GDF15 was aliquoted and pre-incubated in PBS with the various receptor fragment before addition to cells. Sequentially, the cells were treated with either PBS, GDF15 or GDF15/QRFPR-derived peptide mixes.

In the next test the target is T1, CLPTM1 (Homo sapiens, UniProt O96005).
T1 construct: endogenous in cells; host or cells: NK-92 cells
T1 sequence (O96005 1-669): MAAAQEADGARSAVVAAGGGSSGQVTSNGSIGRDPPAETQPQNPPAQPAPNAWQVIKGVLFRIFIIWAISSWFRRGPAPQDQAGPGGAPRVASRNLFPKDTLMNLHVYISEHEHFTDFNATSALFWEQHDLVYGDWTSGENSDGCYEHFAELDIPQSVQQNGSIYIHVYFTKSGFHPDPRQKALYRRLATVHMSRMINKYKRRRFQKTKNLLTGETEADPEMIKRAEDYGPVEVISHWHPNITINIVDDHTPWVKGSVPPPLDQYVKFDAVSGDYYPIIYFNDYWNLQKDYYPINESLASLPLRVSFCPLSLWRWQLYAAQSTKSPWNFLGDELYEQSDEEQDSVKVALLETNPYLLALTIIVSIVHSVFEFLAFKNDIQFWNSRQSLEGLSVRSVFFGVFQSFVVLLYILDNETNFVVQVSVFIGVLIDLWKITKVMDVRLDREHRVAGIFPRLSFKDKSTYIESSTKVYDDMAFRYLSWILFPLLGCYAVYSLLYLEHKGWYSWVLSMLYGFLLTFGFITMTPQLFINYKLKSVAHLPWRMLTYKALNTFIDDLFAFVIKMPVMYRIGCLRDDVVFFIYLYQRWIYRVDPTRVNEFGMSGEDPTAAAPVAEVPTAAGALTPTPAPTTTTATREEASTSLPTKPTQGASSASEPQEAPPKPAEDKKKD
The experiment in a line: Detection of phosphorylated GSK3b (9/21) in NK-92 cells (in situ PLA, Western blot). The following applies: GDF15 in the presence of control antibody, FIG. 16. The protocol:
A-C) In situ PLA detection of phosphorylated GSK3b (GSK3b-p(9/21) using a pair of proximity probes A) Negative control cells with no added GDF15. B) Cells after exposure to GDF15 and control antibody. C) Cells after exposure to GDF15 following pre-incubation with a monoclonal antibody targeting the extracellular domain of CLPTM1 D) Western Blot indicating the levels of phosphorylated GSKb (p-GSKb). Lane 1—No GDF15. Lane 2—GDF15 stim+ ctrl ab. Lane 3 GDF15 stim+ mAb mouse (antibody used in in situ PLA experiment).
The effect of antibodies binding CLPTM1 on inhibiting GDF15 induced downstream signalling through the TGFB heterotetrameric complex was assessed by detecting phosphorylated GSK3b-pGSK3b(9/21) in an in situ PLA assay. Phosphorylation of GSK3b is known to cause immunosuppressive effects i.e. suppress immune cell function.
(In general: A western blot detects proteins with antibodies after separation by electrophoresis.)

For test [2], the target named is T2, QRFPR (Homo sapiens, UniProt Q96P65).
T2 construct: endogenous in cells
T2 sequence (Q96P65 1-431): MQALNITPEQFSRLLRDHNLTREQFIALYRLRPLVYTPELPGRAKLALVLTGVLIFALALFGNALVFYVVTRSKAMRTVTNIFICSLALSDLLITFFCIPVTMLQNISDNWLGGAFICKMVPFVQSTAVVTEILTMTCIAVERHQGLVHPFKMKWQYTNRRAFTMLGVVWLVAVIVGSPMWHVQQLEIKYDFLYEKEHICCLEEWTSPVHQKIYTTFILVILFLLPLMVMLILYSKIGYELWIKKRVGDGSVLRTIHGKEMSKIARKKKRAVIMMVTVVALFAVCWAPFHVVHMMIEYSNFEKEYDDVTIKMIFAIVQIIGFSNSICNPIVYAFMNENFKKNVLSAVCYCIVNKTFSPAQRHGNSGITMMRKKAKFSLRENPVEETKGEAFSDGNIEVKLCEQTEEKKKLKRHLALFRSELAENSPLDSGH
The experiment in a line: In situ PLA detection of EEA1-QRFPR proximity. The following applies: GDF15 5 min; FIG. 3C-D. The text has this: […] (EEA1) is a marker for rapid endosome formation, and an assay was developed to detect the proximity of EEA1 and QRFPR. In the absence of GDF15, no signal was obtained (FIG. 3C).

In test [3] the target is T2, QRFPR. Nature of the test: In situ PLA detection of CD9-QRFPR proximity. The following applies: GDF15 30 minutes; FIG. 4. The text has this:
The tetraspanin CD9 has dual roles, both in endosome trafficking and in exosome secretion (Mazurov et al.). An in situ PLA assay was developed to detect the proximity of CD9 and QRFPR using antibodies against CD9 and QRFPR. In the absence of GDF15, only a low signal level is observed (FIGS. 4A and 4C).

Test [4] addresses T2, QRFPR. The experiment in a line: Western blot of QRFPR positive exosomes from conditioned medium of MCF-7 cells. The following applies: MCF-7 cells exposed to GDF15 vs not exposed; FIG. 1B. The protocol:
Conditioned cell culture media were sequentially centrifuged for 5 min at 3,000 x g to pellet the cells and then at 10,000×g for 10 min to further remove cells and cell debris. The supernatant was then filtered through a 0.45 μm filter and then finally pelleted at 100,000×g for 2 h at 4° c. Pelleted exosomes were resuspended in PBS and protease inhibitor (complete mini, Roche) was added. The samples were then prepared for further analyses as described elsewhere.
Material from the ultracentrifuged pellet was separated on a 12.5% SDS-PAGE gel (Biorad) at 150 v for 80 min, wet transferred to a Immobilon K membrane, blocked with 5% BSA for 1 h RT, and incubated with the corresponding QRFPR antibodies o/n at +4 with mild agitation. The membranes were washed with TBST, and the corresponding secondary antibodies, conjugated to horse radish peroxidase, were applied for 1 hr RT, the membrane washed with TBST and developed using an ECL detection reagent (FIG. 1B).

Consider “GDF15: Growth and differentiation factor 15, from mammalian source or recombinant from E. coli (Abcam, Biovision)”, for which, in the test with QRFPR [1], the “level of QRFPR at the cell surface” value is “reduced by GDF15”. Also, the “9/21 phosphorylation of GSK3b” value in the test with CLPTM1 is on record as “induces 9/21 phosphorylation of GSK3b”. Moreover, in the test with QRFPR [2], the “EEA1-QRFPR proximity (RCA products)” value is recorded as “increase the number of RCA products”. Further, in the test with QRFPR [3], the CD9-QRFPR complex signal result is “higher level of signal”. The “QRFPR in exosomes from conditioned medium” value in the test with QRFPR [4] is “higher levels of QRFPR in conditioned medium”.
